Experimental data reported in patent US20260209386A1 (MYTHIC THERAPEUTICS, published 2026).

T1: Human PTK7 (human, UniProt Q13308 31-1070)
T1 sequence: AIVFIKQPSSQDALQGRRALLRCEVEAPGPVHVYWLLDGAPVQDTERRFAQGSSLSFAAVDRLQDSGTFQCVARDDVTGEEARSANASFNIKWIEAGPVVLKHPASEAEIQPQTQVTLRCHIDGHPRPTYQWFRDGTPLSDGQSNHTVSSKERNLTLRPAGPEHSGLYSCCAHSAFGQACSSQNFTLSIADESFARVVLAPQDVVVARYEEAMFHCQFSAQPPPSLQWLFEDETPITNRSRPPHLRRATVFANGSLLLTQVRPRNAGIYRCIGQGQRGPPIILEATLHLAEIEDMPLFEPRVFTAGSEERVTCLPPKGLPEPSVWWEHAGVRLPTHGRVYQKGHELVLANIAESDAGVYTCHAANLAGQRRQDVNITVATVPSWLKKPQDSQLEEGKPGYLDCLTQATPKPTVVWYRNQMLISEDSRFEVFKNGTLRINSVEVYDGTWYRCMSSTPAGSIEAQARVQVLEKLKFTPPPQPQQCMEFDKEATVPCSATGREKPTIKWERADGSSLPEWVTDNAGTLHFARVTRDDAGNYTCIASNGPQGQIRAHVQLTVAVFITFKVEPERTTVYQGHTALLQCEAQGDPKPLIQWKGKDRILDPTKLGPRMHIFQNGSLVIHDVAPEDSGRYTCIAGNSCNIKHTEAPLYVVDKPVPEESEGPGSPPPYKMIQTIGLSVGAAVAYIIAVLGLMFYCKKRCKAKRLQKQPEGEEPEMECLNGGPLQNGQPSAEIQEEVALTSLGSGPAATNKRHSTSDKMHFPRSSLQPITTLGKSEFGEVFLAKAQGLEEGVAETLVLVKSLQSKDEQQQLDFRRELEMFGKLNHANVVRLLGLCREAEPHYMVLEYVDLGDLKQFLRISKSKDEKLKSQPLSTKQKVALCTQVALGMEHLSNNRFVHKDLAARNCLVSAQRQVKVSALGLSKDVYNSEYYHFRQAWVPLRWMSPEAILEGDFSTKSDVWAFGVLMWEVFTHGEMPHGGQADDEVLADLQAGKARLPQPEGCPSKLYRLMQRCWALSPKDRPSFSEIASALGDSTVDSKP

B1: MYT11287 (antibody, V domains shown)
VH: EVQLVESGGGLVQPGGSLRLSCTASGIDLSRYSMGWVRQAPGKGLEWVGIISYGGSTYYASWAKGRFTISRDTSKNTVYLQMNSLRAEDTAVYFCARVGYPGHSGYGYAFDAFDPWGQGTLVTVSS
VL: EIVMTQSPSTLSASVGDRVIITCQSSKSVYNDNWLSWYQQKPGKAPKLLIYGASTLASGVPSRFSGSGSGAEFTLTISSLQPDDFATYYCAGGYSSSSDNGFGQGTKLTVL
B2: MYT11316 (antibody, V domains shown)
VH: EVQLVESGGGLVQPGGSLRLSCTASGIDLSRYSMGWVRQAPGKGLEWVGIISYGGSTYYASWAKGRFTISRDTSKNTVYLQMNSLRAEDTAVYFCARVGYPGYSGYGYAFDAFDPWGQGTLVTVSS
VL: EIVMTQSPSTLSASVGDRVIITCQSSKSVYNDNWLHWYQQKPGKAPKLLIYGASTLASGVPSRFSGSGSGAEFTLTISSLQPDDFATYYCAGGYSSSSDNGFGQGTKLTVL
B3: MYT11293 (antibody, V domains shown)
VH: EVQLVESGGGLVQPGGSLRLSCTASGIDLSRYSMGWVRQAPGKGLEWVGIISYGGSTYYASWAKGRFTISRDTSKNTVYLQMNSLRAEDTAVYFCARVGYPGYSGYGYHFDAFDPWGQGTLVTVSS
VL: EIVMTQSPSTLSASVGDRVIITCQSSKSVYNDNWLSWYQQKPGKAPKLLIYGASTLASGVPSRFSGSGSGAEFTLTISSLQPDDFATYYCAGGYSSSSDNGFGQGTKLTVL
B4: MYT11297 (antibody, V domains shown)
VH: EVQLVESGGGLVQPGGSLRLSCTASGIDLSRYSMGWVRQAPGKGLEWVGIISYGGSTYYASWAKGRFTISRDTSKNTVYLQMNSLRAEDTAVYFCARVGYPGYSGYGYAFDAHDPWGQGTLVTVSS
VL: EIVMTQSPSTLSASVGDRVIITCQSSKSVYNDNWLSWYQQKPGKAPKLLIYGASTLASGVPSRFSGSGSGAEFTLTISSLQPDDFATYYCAGGYSSSSDNGFGQGTKLTVL
B5: MYT11324 (antibody, V domains shown)
VH: EVQLVESGGGLVQPGGSLRLSCTASGIDLSRYSMGWVRQAPGKGLEWVGIISYGGSTYYASWAKGRFTISRDTSKNTVYLQMNSLRAEDTAVYFCARVGYPGYSGYGYAFDAFDPWGQGTLVTVSS
VL: EIVMTQSPSTLSASVGDRVIITCQSSKSVYNDNWLSWYQQKPGKAPKLLIYGASTLASGVPSRFSGSGSGAEFTLTISSLQPDDFATYYCHGGYSSSSDNGFGQGTKLTVL
B6: MYT11321 (antibody, V domains shown)
VH: EVQLVESGGGLVQPGGSLRLSCTASGIDLSRYSMGWVRQAPGKGLEWVGIISYGGSTYYASWAKGRFTISRDTSKNTVYLQMNSLRAEDTAVYFCARVGYPGYSGYGYAFDAFDPWGQGTLVTVSS
VL: EIVMTQSPSTLSASVGDRVIITCQSSKSVYNDNWLSWYQQKPGKAPKLLIYGASTHASGVPSRFSGSGSGAEFTLTISSLQPDDFATYYCAGGYSSSSDNGFGQGTKLTVL
B7: MYT11291 (antibody, V domains shown)
VH: EVQLVESGGGLVQPGGSLRLSCTASGIDLSRYSMGWVRQAPGKGLEWVGIISYGGSTYYASWAKGRFTISRDTSKNTVYLQMNSLRAEDTAVYFCARVGYPGYSGYHYAFDAFDPWGQGTLVTVSS
VL: EIVMTQSPSTLSASVGDRVIITCQSSKSVYNDNWLSWYQQKPGKAPKLLIYGASTLASGVPSRFSGSGSGAEFTLTISSLQPDDFATYYCAGGYSSSSDNGFGQGTKLTVL
B8: MYT11307 (antibody, V domains shown)
VH: EVQLVESGGGLVQPGGSLRLSCTASGIDLSRYSMGWVRQAPGKGLEWVGIISYGGSTYYASWAKGRFTISRDTSKNTVYLQMNSLRAEDTAVYFCARVGYPGYSGYGYAFDAFDPWGQGTLVTVSS
VL: EIVMTQSPSTLSASVGDRVIITCQSSHSVYNDNWLSWYQQKPGKAPKLLIYGASTLASGVPSRFSGSGSGAEFTLTISSLQPDDFATYYCAGGYSSSSDNGFGQGTKLTVL
B9: MYT11305 (antibody, V domains shown)
VH: EVQLVESGGGLVQPGGSLRLSCTASGIDLSRYSMGWVRQAPGKGLEWVGIISYGGSTYYASWAKGRFTISRDTSKNTVYLQMNSLRAEDTAVYFCARVGYPGYSGYGYAFDAFDPWGQGTLVTVSS
VL: EIVMTQSPSTLSASVGDRVIITCQHSKSVYNDNWLSWYQQKPGKAPKLLIYGASTLASGVPSRFSGSGSGAEFTLTISSLQPDDFATYYCAGGYSSSSDNGFGQGTKLTVL
B10: MYT11292 (antibody, V domains shown)
VH: EVQLVESGGGLVQPGGSLRLSCTASGIDLSRYSMGWVRQAPGKGLEWVGIISYGGSTYYASWAKGRFTISRDTSKNTVYLQMNSLRAEDTAVYFCARVGYPGYSGYGHAFDAFDPWGQGTLVTVSS
VL: EIVMTQSPSTLSASVGDRVIITCQSSKSVYNDNWLSWYQQKPGKAPKLLIYGASTLASGVPSRFSGSGSGAEFTLTISSLQPDDFATYYCAGGYSSSSDNGFGQGTKLTVL
B11: MYT11310 (antibody, V domains shown)
VH: EVQLVESGGGLVQPGGSLRLSCTASGIDLSRYSMGWVRQAPGKGLEWVGIISYGGSTYYASWAKGRFTISRDTSKNTVYLQMNSLRAEDTAVYFCARVGYPGYSGYGYAFDAFDPWGQGTLVTVSS
VL: EIVMTQSPSTLSASVGDRVIITCQSSKSVHNDNWLSWYQQKPGKAPKLLIYGASTLASGVPSRFSGSGSGAEFTLTISSLQPDDFATYYCAGGYSSSSDNGFGQGTKLTVL
B12: MYT11315 (antibody, V domains shown)
VH: EVQLVESGGGLVQPGGSLRLSCTASGIDLSRYSMGWVRQAPGKGLEWVGIISYGGSTYYASWAKGRFTISRDTSKNTVYLQMNSLRAEDTAVYFCARVGYPGYSGYGYAFDAFDPWGQGTLVTVSS
VL: EIVMTQSPSTLSASVGDRVIITCQSSKSVYNDNWHSWYQQKPGKAPKLLIYGASTLASGVPSRFSGSGSGAEFTLTISSLQPDDFATYYCAGGYSSSSDNGFGQGTKLTVL
B13: MYT11303 (antibody, V domains shown)
VH: EVQLVESGGGLVQPGGSLRLSCTASGIDLSRYSMGWVRQAPGKGLEWVGIISYGGSTYYASWAKGRFTISRDTSKNTVYLQMNSLRAEDTAVYFCARVGYPGYSGYGYAFDAFAPWGQGTLVTVSS
VL: EIVMTQSPSTLSASVGDRVIITCQSSKSVYNDNWLSWYQQKPGKAPKLLIYGASTLASGVPSRFSGSGSGAEFTLTISSLQPDDFATYYCAGGYSSSSDNGFGQGTKLTVL
B14: MYT11294 (antibody, V domains shown)
VH: EVQLVESGGGLVQPGGSLRLSCTASGIDLSRYSMGWVRQAPGKGLEWVGIISYGGSTYYASWAKGRFTISRDTSKNTVYLQMNSLRAEDTAVYFCARVGYPGYSGYGYAHDAFDPWGQGTLVTVSS
VL: EIVMTQSPSTLSASVGDRVIITCQSSKSVYNDNWLSWYQQKPGKAPKLLIYGASTLASGVPSRFSGSGSGAEFTLTISSLQPDDFATYYCAGGYSSSSDNGFGQGTKLTVL

molecular target: T1, Human PTK7; assay: cell-based or functional assay

Q: Which “Internalization, FOW @ 25 nM (fold over the wildtype, parental antibody)” value does the source give for B1 here?
A: 1.71 fold over parental antibody

Q: How did the “Internalization, FOW @ 25 nM (fold over the wildtype, parental antibody)” value turn out when B2 was run?
A: 1.55 fold over parental antibody

Q: Which “Internalization, FOW @ 25 nM (fold over the wildtype, parental antibody)” value does the source give for B3 here?
A: 1.65 fold over parental antibody

Q: B4 was tested. Which “Internalization, FOW @ 25 nM (fold over the wildtype, parental antibody)” value did it give?
A: 1.51 fold over parental antibody

Q: Which “Internalization, FOW @ 25 nM (fold over the wildtype, parental antibody)” value does the source give for B5 here?
A: 1.58 fold over parental antibody

Q: For B6, which “Internalization, FOW @ 25 nM (fold over the wildtype, parental antibody)” value is on record?
A: 1.36 fold over parental antibody

Q: With B7 as the binder, how does the “Internalization, FOW @ 25 nM (fold over the wildtype, parental antibody)” value read?
A: 1.53 fold over parental antibody

Q: For B8, which “Internalization, FOW @ 25 nM (fold over the wildtype, parental antibody)” value is on record?
A: 1.82 fold over parental antibody

Q: For B9, which “Internalization, FOW @ 25 nM (fold over the wildtype, parental antibody)” value is on record?
A: 1.37 fold over parental antibody

Q: For B10, which “Internalization, FOW @ 25 nM (fold over the wildtype, parental antibody)” value is on record?
A: 1.59 fold over parental antibody

Q: How did the “Internalization, FOW @ 25 nM (fold over the wildtype, parental antibody)” value turn out when B11 was run?
A: 1.64 fold over parental antibody

Q: How did the “Internalization, FOW @ 25 nM (fold over the wildtype, parental antibody)” value turn out when B12 was run?
A: 1.51 fold over parental antibody

Q: B13 was tested. Which “Internalization, FOW @ 25 nM (fold over the wildtype, parental antibody)” value did it give?
A: 1.51 fold over parental antibody

Q: For B14, which “Internalization, FOW @ 25 nM (fold over the wildtype, parental antibody)” value is on record?
A: 1.66 fold over parental antibody
